Source: US20120308513A1 (DENDREON, published 2012)

How the values were obtained:
Experiment in all cases: cell-based or functional assay
HLA-DRB1*0302 = HLA-DRB1*0302 (human)
HLA-DRB1*0901 = HLA-DRB1*0901 (human)
HLA-DRB1*1102 = HLA-DRB1*1102 (human)
HLA-DRB1*1201 = HLA-DRB1*1201 (human)
HLA-DRB1*1101 = HLA-DRB1*1101 (human)
HLA-DRB1*080101 = HLA-DRB1*080101 (human)
HLA-DRB1*1402 = HLA-DRB1*1402 (human)
HLA-DRB1*040301 = HLA-DRB1*040301 (human)
HLA-DRB1*1503 = HLA-DRB1*1503 (human)
HLA-DRB1*1401 = HLA-DRB1*1401 (human)
HLA-DRB1*040501 = HLA-DRB1*040501 (human)
HLA-DRB1*1301 = HLA-DRB1*1301 (human)
HLA-DRB1*1302 = HLA-DRB1*1302 (human)
HLA-DRB1*1103 = HLA-DRB1*1103 (human)
HLA-DRB1*0301 = HLA-DRB1*0301 (human)
HLA-DRB1*1104 = HLA-DRB1*1104 (human)
HLA-DRB1*0103 = HLA-DRB1*0103 (human)
HLA-DRB1*0701 = HLA-DRB1*0701 (human)
HLA-DRB1*080201 = HLA-DRB1*080201 (human)
HLA-DRB1*160201 = HLA-DRB1*160201 (human)
HLA-DRB1*110401 = HLA-DRB1*110401 (human)
HLA-DRB1*0102 = HLA-DRB1*0102 (human)
HLA-DRB1*0401 = HLA-DRB1*0401 (human)
HLA-DRB1*0402 = HLA-DRB1*0402 (human)
HLA-DRB1*0101 = HLA-DRB1*0101 (human)

Measured: IFNγ production by T cell clone HER500.23c21, HERp270-284 at 1 µg/mL presented by the homozygous EBV-LcL line (ELISA)

ALVTYNTDTFESMPN [HER500 peptide #63 (HERp270-284)]
> 4000 pg/mL: HLA-DRB1*0302 | HLA-DRB1*0901 | HLA-DRB1*1102 | HLA-DRB1*1201 | HLA-DRB1*1101 | HLA-DRB1*080101 | HLA-DRB1*1402 | HLA-DRB1*040301 | HLA-DRB1*1503 | HLA-DRB1*1401 | HLA-DRB1*040501 | HLA-DRB1*1301 | HLA-DRB1*1302 | HLA-DRB1*1103 | HLA-DRB1*0301 | HLA-DRB1*1104 | HLA-DRB1*0103 | HLA-DRB1*0701 | HLA-DRB1*080201 | HLA-DRB1*160201 | HLA-DRB1*110401 | HLA-DRB1*0102 | HLA-DRB1*0401 | HLA-DRB1*0402 | HLA-DRB1*0101
